Paper PMC6936856
Numbering of substitutions follows the chain as printed.

B1: DH501 IgG1 (antibody, V domains shown)
VH: QVTLKEFGPALVKPTQPLTLTCSFSGFSLRSSDTAVVWIRQPPGKALEWLAAIYWDDVEHINPSLKSRLSISKDSPNSLVVLTMANMDPVDTATYYCGRVRFVSGGYYTDRIDSWGPGLLVTVSS
VL: QSVLTQPPSVSGAPGQRVTISCAGTKSNIGDCSVSWYQQLPGATPRLLIYQNNNRPSGVSDRFSGSKSGTSASLAITGLQTEDEADYFCLSYDTSFSGWRFGGGTRLTVL
B2: DH501 H/UCA L chimeric antibody (antibody, V domains shown)
VH: B1 VH
VL: QSVLTQPPSVSGAPGQRVTISCTGSSSNIGGYYVSWYQQLPGTTPKLLIYQDNKRPSGVSDRFSGSKSGTSASLTITGLQTEDEADYYCLSYDTSFSGWRFGGGTRLTVL
B3: DH501 with HFWR4 somatic mutations reverted to the UCA sequence (antibody, V domains shown)
VH: B1 VH with P117Q, L119V
VL: B1 VL

Columns and labels:
[1] = target: JR-FL Env gp160 on pseudovirus (HIV-1 (JR-FL)) (UniProt Q75760)
[2] = target: JR-FL Env gp160 on pseudovirus (HIV-1 (JR-FL)) (UniProt Q75760); remark: listed apart in the source

Binder	IC50 of neutralisation of kifunensine-treated (Man9GlcNAc2-enriched) JR-FL pseudovirus, TZM-bl cells [1] [µg/mL]	IC50 of neutralisation of kifunensine-treated JR-FL, TZM-bl cells [2] [µg/mL]
B1	0.09	–
B2	0.06	–
B3	–	4.34
